“And” between values parts separate entries of the source, which are not always exact repeats. Equal values may be shown once.
Target: CD20 on autologous CD19+CD20+ B cells (human) (UniProt P11836)
Assay: cell-based or functional assay

Sequence of CD20 on autologous CD19+CD20+ B cells (human) (P11836 whole entry): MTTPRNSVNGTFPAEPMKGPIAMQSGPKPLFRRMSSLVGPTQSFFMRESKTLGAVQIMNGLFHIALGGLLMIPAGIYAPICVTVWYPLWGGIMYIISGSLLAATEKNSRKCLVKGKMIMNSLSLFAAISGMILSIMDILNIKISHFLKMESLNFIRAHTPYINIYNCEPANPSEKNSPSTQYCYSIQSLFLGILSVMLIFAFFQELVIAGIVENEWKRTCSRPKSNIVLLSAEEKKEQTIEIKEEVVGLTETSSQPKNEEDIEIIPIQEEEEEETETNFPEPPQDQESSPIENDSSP

fold of CD69 activation of Tregs, hFXP3-driven CAR, 24 h with autologous B cells: 1.9 fold and 1.8 fold
fold of CD69 activation of Tregs, hPGK-driven CAR (TX028), 24 h with autologous B cells: 1.5 fold
Substance: CD20 CAR (CD8 leader, scFv directed against CD20 (B9E9), streptavidin tag, CD8 alpha linker and transmembrane domain, 4-1BB activation domain, CD3 zeta activation domain) (receptor)
